Test results as given in US20060172925, “Thio-siRNA aptamers” (Board Of Regents, The University Of Texas System, published 2006).

Target: VEE capsid protein (Venezuelan equine encephalitis virus, UniProt P09592 P09592:1-275)
Assay: EMSA
Details: label: biotin

Chain of VEE capsid protein (P09592 1-275, one chain of several): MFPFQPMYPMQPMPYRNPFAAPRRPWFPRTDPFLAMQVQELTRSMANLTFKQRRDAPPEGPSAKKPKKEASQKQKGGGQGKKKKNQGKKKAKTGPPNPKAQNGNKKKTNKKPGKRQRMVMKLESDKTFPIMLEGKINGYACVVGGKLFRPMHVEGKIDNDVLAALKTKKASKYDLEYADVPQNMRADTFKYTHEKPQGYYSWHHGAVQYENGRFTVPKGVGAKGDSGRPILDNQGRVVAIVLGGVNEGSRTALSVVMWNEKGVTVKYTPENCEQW

Row | Binder | binding result
1 | GGGAGCUCAGAAUAAACGCUCAAGGCCCUUGCGCCCACACGCAAGC (ssRNA) [KLG_5_46] | binds
2 | GGUUGCGCCCACACGCAAACACCGCCCUUCGACAUGAGGCCCGGC (ssRNA) [KLG_M_45] | binds
